Experimental data taken from the nanobody polyreactivity screen of Harvey et al. (2022).

Test: yeast display, Sf9 membrane polyspecificity reagent, FACS + sequencing; frameworks hold sequencing errors
Outline: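 Using colony PCR, genes from sorted yeast display clones were amplified, then sequenced on MiSeq at 2 × 250 and filtered by CDR length. The clones had been stained with 10% biotinylated, detergent-solubilized Sf9 membrane reagent for 1 hour at 4 °C and sorted by FACS into low and high (top ~1%) gates on anti-HA and streptavidin fluorescence. Polyreactivity labels come from the gate of origin.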

| Sequence | polyreactivity (PSR sort gate) |
| --- | --- |
| QVQLVESGGGLVQAGVSLRLSCAASGLTFKWNAMGWYRHAPGKEREFVAAITKRAGSTYYADSVKGRFTISRDNAKNTVYLQMNSLKPEDTAVYYCAADDGYFYARYDYWGHGTQVTVSS | low polyreactivity |
| QVQLVESGGGLVQAGGSLRLSCAASGLTFHPYAMGWYRQAPGKERELVAAISSRGTSTYYADSVKGRFTISRDNAKNTVYLQMNSLKPEDTAVYYCAARHGPRAEAMYYWGQGTQVTVSS | high polyreactivity |
| QVQLVESGGGLVQAGGSLRLSCAASGRTFVVNAMGWYRQAPGKERELVAAITRRGGITYYADSVKGRFTISRDNAKNTVYLQMNSLKPEDTAVYYCAADRSYYPDTRTTYGYNYWGQGTQVTVSS | low polyreactivity |
| QVQLVESGGGLVQAGGSLRLSCAASGSIFYYNAMGWYRPAPGKERELVADISTSGSTYYADSVKGRFTISRDNAKNTVYLQMNSLKPEDTAVYYCNADYLPQEGEFSYPYDYWGQGTQVTVSS | low polyreactivity |
| QVQLVESGGGLVQAGGSLRLSCAASGSTFWLYVMGWYRQAPGKERELVAAISSGGITKYADSVKGRFTISRDNAKNTVYLQMNSLKPEDTAVYYCAVGVLGYRRVTGYYWGQGTQVTVTS | high polyreactivity |
| QVQLVESGGGLVQAGGSLRLSCAASGFIFGRYAMGWYRQAPGKERELVARITGIGTRTYYADSVKGRFTISRDNAKNTVYLQMNSLKPEDTAVYYCAVRPFYWGQGTQVTVSS | high polyreactivity |
| QVQLVESGGGLVQAGGSLRLSWAASGGNFEYNAMGWYRQAPGKERELVAAITNGGSTNYADSVKGRFSISRDNAKNTVYIQMNSLKPDDTAVYYCATVFFVLPPTRFASWGQGTQVTVSS | low polyreactivity |
| QVQLVESGGGLVQAGGSLRLSCAASGSICDDYAMGWYRQAPGKEWELVAAISSSGTSTYYADSVKGRFTISRDNAMYTVYLQMNSLKPEDTAVYYCSARSAILISGYLMDYWGQGTQVTVSS | low polyreactivity |
| QVQLVESGGGLVQARGSLRLSCAASGFTFDTYAMGSYRQAPGKARELVAVLSRGGSTYYADSVKGRFTISRDKAKNTVYLQMNSLKPEDPAVYFCNAKHKQGRKQFKLGAGYYWGQGTQVTVSS | high polyreactivity |
| QVQLVESGGGLVQAGGSLRLSCAASGTTFKTYCMGRYRQAPGKERELVAAISRRGGSTSYADSVKGRFTISRDNAKNTVYLQMNSLKPEDTAVYYCNVLGWWHVWGYDYWGQGTQVTVSS | high polyreactivity |
| QVQLVESGGGLLQAGGSLRLSCAASVNIFWRYRMGWYRQAPGKERELVAAIRRSGGTTYYADSVKGRFTISRDNAKNTVYFQMNSLKPEDTAVYNCAAGLTVRKFVRFDYWGHGTQVTVSS | low polyreactivity |
| QVQLVESGGGLVQARGSLRLSCAASGRTFVDYVMGWYRQAPGKERELVAAITYSGGSTSYADSVKGRFTISRDYAKNNFNLQMNSLKPEDTAVYYCNADGDHPYSRNDYWGQGTQVTVSS | low polyreactivity |
| QVQHVESGGGLVQAGGSLRLSCAASGRTYVNYVMGWYRQAPGKEREFVAAISRNGGSTYYADSVKGRFSISRDNAKYTFYLQMNSLKPEDTAVYYCAARPRRRYYGSDSWGQGTQVTVSS | high polyreactivity |
| QDQLEESGGGLVHAGGSLRLSCAASGRIFLTNAMGWYRQAPGKERELVAAITSGGSTYYADSVKGRFTISRDNEMNTVYLQMNSLNPEDTAVYYCNAYVTSGYANEYYWGQGSQVTVSS | low polyreactivity |
| QVQLVESGGGLVQAGGNLRLSCAASGRTFRFNAMGWYRQAPGKERELVAAISFRGGSTYYADSVKGRFTISRDNAKNTVYLQMTSLKPEDTAVYYCAADNPYQGRKFDYWGQGTQVSVSS | high polyreactivity |
| QVQLVESGGGLVQAGGSLRLSCAASGSIFGRYTMGWYRQAPGKERELVAAISWGGGSTYYADSVKGRFTISRDNAKNSVYLQMNSLKPEDTAVYYCAADTYWAIDPIYDYWGQGTQVTVSS | low polyreactivity |
| QVQLVESGGGLVQAGGSLRLSCAASGIILVAYAMGWYRPAPGKERELVAAITTSGTSTYYADSVKGRFTISRDNAKNTVYVQMNSLTPEDTAVYYCAVRQRYGPARYDYWGQGTQVTVSS | high polyreactivity |
| QVQLVESGGGLVPAGGSLRLSCAASGRTFYYYAMGWYRQAPGKERELVAAIRRSGSSTYYADSVKGRFTISRDNAKNTVYLQMNSLKPEDTAVYYCAARPRRPRSNYWGQGTQVSVSS | high polyreactivity |
| QVQLVESGGGLVQAGGSLRLSCAASGLTFRWYAMGWYRQAPGKERELVAAISSSGRTNYADSVKGRFTISRDNAKNTVYLQMNSLKPEDTAVYYCAADSSWRTSDYWGQGTQVTVSS | low polyreactivity |
| QVQLVESGGGLVQAGGSLRLSCAASGFIFYRYAMGWYRPAPGKVRELVAAINWSGGGTYYADSVKGRFTISRDHAKNTVYLQKNSRKPEETAVYYCAAGRSFRGSYWYEYCGQGTQVTVSS | high polyreactivity |
| QVQLVESGGGIVQAGGSLRLSCAASGIIFHFNDMGWYRQAPGKERELVAAITSGGSTNYADSVKGRFTISRDNAKNTVDLQMNSLKPEDTAVYYCAARRGLRLFAYRHGYWGQGTQVTVSS | low polyreactivity |

| Sequence | polyreactivity (PSR sort gate) |
| --- | --- |
| QVQLVESGGGLVQAGGSLRLSCAASGFIFRSNTMGWYRQAPGKERELVAAITWSGGNTYYADSVKGRFTISRDNAKNTVYLQMNSLKPEDTAVYYCATVTRLYRHGYWGQGTQVTVSS | high polyreactivity |
| QVQLVESGGGLVQGGGSLRLSCAASGRNWSRYAMGWYRQAPGKERELVADITYSGGNTYYADSVKGRFTISRDNAKNTVYLQMNSLKPEDTAVYYCSTGWSWWTFDYWGQGTQVTVSS | high polyreactivity |
| QVQLVESGGGLVQAGGSLRLSCAASGSIFYGNAMGWYRQAPGKERELVAAISARGGSTNYADSVKGRFTISRDNAKNTVYLQMNSLKPEDTSVYYCAADTPVWSGYWYYYWGQGTQVTVSS | low polyreactivity |
| QVQLVESGGGLVQAGGSLRLRCAASGRTLVAYAMGWYRQAPGKERELVAAIDTDTGITYYADSVKGRFTISRDNAKNTVYLQMNSLKPEDTAVYYCAAETYYAVSTGYDFDYWGQGTQVTVSS | high polyreactivity |
| QVQLVESGGGLVQAGGSLRLSCAASGFIFFGYAMGWYRQAPGKEMELVAAITSGGSTYYADSVKGRFTISRDNAKNTVYLQMNSLKPEDSAVYYCAAVRWYGSKRYGYWGQGTQVTVSS | high polyreactivity |
| QVQLVESGGGLVQAGGSLRLSCAASGSIFAPNAMGWYRQAPGKERELVAAISRSGGRTYYADSVKGRFTISRDNAKNTVYFQMNSLKPEDTAVYYCAADYKHQRTYGSWGQGTQVTVSS | high polyreactivity |
| QVQLVESGGGLVQAGGSLRLSCAASGGIFLVNDMGWYRQAPGKERELVAAITSGGGTYYADSVKGRFTISRDNAKNTVYLQMNSLKPEDTAVYYCARDTYRQIVSNESYGYWGQGTQVTVSS | low polyreactivity |
| QVQLVESGGGLVQAGGSLRLSCAASGRIFIRNAMGWYRQAPGKERELVAAITSDGGSTDYADSVKGRFTISRDNAKNTVYLQMNSLIPEDTAVYYCAATGSGYDYWGQGTQVTVSS | low polyreactivity |
| QVQLVESGGGLVQAGGSLRLSCAASGSTFLRNAMGWYRQAPGKERELVATISTGSGRTYYADSVKGRFTISRDNAKNTVYLQMNSLKPEDTAVYYCATRVPLGPYYYGMYYWGQGTQVTVSS | high polyreactivity |
| QVQLVESGGGLVQAGGSLRLSCAASGSIFTSNDMGWYRQAPGKERELVAAITNSGGSTYYADSVKGRFTISGDNAKNTVYLQMNSLKPEDTEVYYCAAEISILPFVTPDTIYGYWGQGTQVTVSS | low polyreactivity |
| QVQLVESGGGLVQAGGSLRLSCAASGFTFRYYAMGWFRQAPGKESELVAAITWSGGGTYYADSVKGRFTISRYNAKNTVYLQMNSLKPEDTAVYYCNVYKSHRHQAEYNYWGQGTKVTVSS | high polyreactivity |
| QVHLVESGGALVQAGGSLRLSCAASGFIFNHYAMGWYRQAPGKEQEFVAAISWSGGSTYYADSVKGRFTISRDNAKITVYLQMNSLKPEDTAVYYCAAAVWYRGWYRYDYWGQGTQVTVSS | low polyreactivity |
| QVQLVESGGGLVQAGGSLRLSCAASGRTFVYNAMGWYRQAPGNERELVAAITSGGRTYYADSVKGRFTISRDNAKNTVYLQMNSLQPEDTAVYYCAKRFWFNTYAAHPAGFDYWGQGTQVTVSS | low polyreactivity |
| QVQLVESGGGLVQAGASLRLSCAASGFTFTPYAMGWYRQAPGKEREMVAAISWGDGSTYYADSVKGRFTISRDNAKNTVYLQMNSLKPEDTAVYYCAADFDFYYDWIYYYWGQGTQVTVSS | high polyreactivity |
| QVQLVESGGGLVQAGGTLRLSCPASGSNFNRYAMGSYRKAPGKERELVAAISSTGSTFYADSVKWRFTISRDNAKITVYLQMNSLTPEDTAVYYCNADATHDWLRVDTYEYWGQGTQVTVSS | low polyreactivity |
| QVQLVESGGGLVQAGGSLRLSCAASGSTFPHNPMGWYRQQPGKERELVAAISVGGGSKHYADSVKGRFTISRDNAKNTVYFQMNSLKPEDTAVYYCAKDYAYQYSFVTYDYWGQGTLVTVSS | low polyreactivity |
| QVQLVESGGGLVQAGGSLRLSCAASGSTFWNAMGWYRQAPGKERELVAAIRLSGGSTYYADSVKGRFTISRDNAKNTVYLQMNRLKPEDTAVYYCATDLVFVSSDLQETAYYWGQGTQVTVSS | low polyreactivity |
| QVQLVESGGGLVQAGGSLRLSCAASGFTFVYYVMGWYRQAPGKERELVAAITRRGGNTYYADSVKGRFTISRDNAKNTVYLQMNSLKPEDTAVYYCNAVLRYGHGPYQKGDYWGQGTQVTVSS | high polyreactivity |
| QVQLVESGGGLVQAGGSLRLSCAASGSTFKYYALGWYRQAPGKERELVAVITSGGSTYYADSVKGRFTISRDNAKNTVYFQMNSLKPEDTAVYYCAAGVRAYNWGEYDYWGQGTQVTVSS | low polyreactivity |
| QVQLVESGGGLVQAGGSLRLSCAASGITFGDNTMGWYRQAPGKERELVAAITYSSTSTYYADSVKGRFTISRDNPKNTVYLQMNSLKPEDTAVYYCAAEGPVDVVSTDYDYWGQGTQVTVSS | low polyreactivity |
